Experimental findings from article PMC11648230, “Structure–function analysis of tRNA t^6A-catalysis, assembly, and thermostability of Aquifex aeolicus TsaD2B2 tetramer in complex with TsaE” (The Journal of Biological Chemistry, 2024) are described below.

Usually Km stands for the substrate concentration at which the rate is half of its maximum. One may read the Vmax as the top rate of the reaction or transport when substrate is in excess. As usually defined, the kcat is the number of substrate molecules converted per active site and unit of time at saturation. One may read the kcat/Km as the turnover number divided by the Michaelis constant.

The target in series [1] is Aquifex aeolicus TsaD^Δ34–382B2 tetramer (Aquifex aeolicus) (UniProt O66986).
Sequence of Aquifex aeolicus TsaD^Δ34–382B2 tetramer (Aquifex aeolicus) (O66986 other isoform, or with tags, fused parts or gaps mutant, chain 1 of 2): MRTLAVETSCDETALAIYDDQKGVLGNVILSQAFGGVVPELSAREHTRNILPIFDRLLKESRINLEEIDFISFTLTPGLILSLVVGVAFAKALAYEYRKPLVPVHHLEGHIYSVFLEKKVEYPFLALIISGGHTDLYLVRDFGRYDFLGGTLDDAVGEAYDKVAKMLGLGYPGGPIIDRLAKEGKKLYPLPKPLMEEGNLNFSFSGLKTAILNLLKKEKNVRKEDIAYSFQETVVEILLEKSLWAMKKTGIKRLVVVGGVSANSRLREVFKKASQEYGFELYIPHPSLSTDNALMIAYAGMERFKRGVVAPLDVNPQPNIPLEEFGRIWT
Sequence of Aquifex aeolicus TsaD^Δ34–382B2 tetramer (Aquifex aeolicus) (partner O66494, as listed by the source mutant, chain 2 of 2): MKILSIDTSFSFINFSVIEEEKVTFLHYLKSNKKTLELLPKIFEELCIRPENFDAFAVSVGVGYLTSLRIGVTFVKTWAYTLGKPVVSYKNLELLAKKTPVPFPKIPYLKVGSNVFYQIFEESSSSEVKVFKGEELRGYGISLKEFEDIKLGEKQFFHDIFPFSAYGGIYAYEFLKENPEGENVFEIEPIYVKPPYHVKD
Series [2] deals with Aquifex aeolicus TsaD2B2 tetramer (Aquifex aeolicus) (UniProt O66986).
Sequence of Aquifex aeolicus TsaD2B2 tetramer (Aquifex aeolicus) (O66986 whole entry, chain 1 of 2): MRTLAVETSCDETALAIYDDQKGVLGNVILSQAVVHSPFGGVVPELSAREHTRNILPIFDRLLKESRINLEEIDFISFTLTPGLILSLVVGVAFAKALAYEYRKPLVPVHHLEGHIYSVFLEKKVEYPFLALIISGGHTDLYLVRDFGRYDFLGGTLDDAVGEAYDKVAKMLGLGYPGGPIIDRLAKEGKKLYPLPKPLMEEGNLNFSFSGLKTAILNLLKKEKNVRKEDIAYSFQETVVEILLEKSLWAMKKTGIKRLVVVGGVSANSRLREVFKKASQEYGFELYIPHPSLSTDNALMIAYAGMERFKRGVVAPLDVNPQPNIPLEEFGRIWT
Sequence of Aquifex aeolicus TsaD2B2 tetramer (Aquifex aeolicus) (partner O66494, as listed by the source, chain 2 of 2): as the sequence (partner O66494, as listed by the source mutant, chain 2 of 2) above
Series [3] has as its target Aquifex aeolicus TsaD2B^mut2 tetramer (Aquifex aeolicus | Thermotoga maritima) (UniProt O66986).
Substrate in series [4]: Nc1ncnc2c1ncn2[C@@H]1O[C@H](COP(=O)(O)OP(=O)(O)OP(=O)(O)O)[C@@H](O)[C@H]1O
The experiment in a line: NADH-coupled ATPase assay. The series is classed as biochemical, Aquifex aeolicus. The conditions noted are these: 10 uM TsaE with 5 uM TsaD2B2, no tRNA, 10 mM MgCl2, 100 mM KCl, pH 7.5, 37 °C. An excerpt:
NADH-coupled ATPase assay on A. aeolicus TsaD2B2E2

Substrate in series [5]: Nc1ncnc2c1ncn2[C@@H]1O[C@H](COP(=O)(O)OP(=O)(O)OP(=O)(O)O)[C@@H](O)[C@H]1O
The experiment in a line: NADH-coupled ATPase assay. The series is classed as biochemical, Aquifex aeolicus. The conditions noted are these: 10 uM TsaE alone, 10 mM MgCl2, 100 mM KCl, pH 7.5, 37 °C. An excerpt:
NADH-coupled ATPase assay on A. aeolicus TsaE (AaTsaE)

Sequence of Aquifex aeolicus TsaD2B^mut2 tetramer (Aquifex aeolicus | Thermotoga maritima) (O66986 whole entry, looked up): as the sequence (O66986 whole entry, chain 1 of 2) above

B1: Aquifex aeolicus TsaE (enzyme)
chain: MELLKEVILESEEDTYKLAEEIAQLLKGSEVICLRGTLGAGKTTFVKALAKALKVKNPSAVRSPTFTLVNEYETDKGKLIHIDLYRVPDFDYSEFIGEGILAVEWEERDKPCDIILEIEILDENKRKVRIYRK
As for B1, in series [1], the Vmax of ATP to ADP hydrolysis by 10 μM TsaE with 5 μM TsaD^Δ34–382B2 (NADH-coupled assay, 37 °C) was 0.219 µM/s and the kcat of ATP to ADP hydrolysis by 10 μM TsaE with 5 μM TsaD^Δ34–382B2 (NADH-coupled assay, 37 °C) came out at 0.044 s⁻¹. Further, in series [2], the Vmax of ATP to ADP hydrolysis by 10 μM TsaE with 5 μM TsaD2B2 (NADH-coupled assay, 37 °C); TsaE alone 0.0374 turned out to be 0.0982 µM/s and the kcat of ATP to ADP hydrolysis by 10 μM TsaE with 5 μM TsaD2B2 (NADH-coupled assay, 37 °C); TsaE alone 0.007 came to 0.02 s⁻¹. Moreover, in series [3], the Vmax of ATP to ADP hydrolysis by 10 μM TsaE with 5 μM TsaD2B^mut2 (NADH-coupled assay, 37 °C) worked out at 0.125 µM/s and the kcat of ATP to ADP hydrolysis by 10 μM TsaE with 5 μM TsaD2B^mut2 (NADH-coupled assay, 37 °C) came to 0.025 s⁻¹.

B2: A. aeolicus TsaD2B2E2 (Aquifex aeolicus VF5) (protein)
chain: B1 chain
notes: recombinant from E. coli; with tRNA N6-adenosine threonylcarbamoyltransferase; tRNA threonylcarbamoyladenosine biosynthesis protein TsaB
For the molecule B2, in series [4], the Km worked out at 228 ± 47.9 µM, the Vmax amounted to 5.89 µM/min, the kcat worked out at 0.02 ± 0.0012 s⁻¹ and the kcat/Km came to 86 M⁻¹ s⁻¹.

B3: A. aeolicus TsaE (AaTsaE) (Aquifex aeolicus VF5) (protein)
chain: B1 chain
notes: recombinant from E. coli (plasmid pET24d-BC11_Eop); monomer
In the case of B3, in series [5], the Km came out at 96 ± 44.9 µM, the maximum rate (Vmax) was determined as 2.24 µM/min, the kcat came to 0.007 ± 0.0007 s⁻¹ and the kcat/Km was determined as 78 M⁻¹ s⁻¹.
